B1: LetB periplasmic portion (residues 43-877) (domain or fragment, E. coli, UniProt P76272 43-877, looked up)
chain: QDRGNTVTIDFMSADGIVPGRTPVRYQGVEVGTVQDISLSDDLRKIEVKVSIKSDMKDALREETQFWLVTPKASLAGVSGLDALVGGNYIGMMPGKGKEQDHFVALDTQPKYRLDNGDLMIHLQAPDLGSLNSGSLVYFRKIPVGKVYDYAINPNKQGVVIDVLIERRFTDLVKKGSRFWNVSGVDANVSISGAKVKLESLAALVNGAIAFDSPEESKPAEAEDTFGLYEDLAHSQRGVIIKLELPSGAGLTADSTPLMYQGLEVGQLTKLDLNPGGKVTGEMTVDPSVVTLLRENTRIELRNPKLSLSDANLSALLTGKTFELVPGDGEPRKEFVVVPGEKALLHEPDVLTLTLTAPESYGIDAGQPLILHGVQVGQVIDRKLTSKGVTFTVAIEPQHRELVKGDSKFVVNSRVDVKVGLDGVEFLGASASEWINGGIRILPGDKGEMKASYPLYANLEKALENSLSDLPTTTVSLSAETLPDVQAGSVVLYRKFEVGEVITVRPRANAFDIDLHIKPEYRNLLTSNSVFWAEGGAKVQLNGSGLTVQASPLSRALKGAISFDNLSGASASQRKGDKRILYASETAARAVGGQITLHAFDAGKLAVGMPIRYLGIDIGQIQTLDLITARNEVQAKAVLYPEYVQTFARGGTRFSVVTPQISAAGVEHLDTILQPYINVEPGRGNPRRDFELQEATITDSRYLDGLSIIVEAPEAGSLGIGTPVLFRGLEVGTVTGMTLGTLSDRVMIAMRISKRYQHLVRNNSVFWLASGYSLDFGLTGGVVKTGTFNQFIRGGIAFATPPGTPLAPKAQEGKHFLLQESEPKEWREWGTALPK
B2: LetB six-ring truncation mutant (ring 6 deleted), TM helix removed (domain or fragment)
chain: QDRGNTVTIDFMSADGIVPGRTPVRYQGVEVGTVQDISLSDDLRKIEVKVSIKSDMKDALREETQFWLVTPKASLAGVSGLDALVGGNYIGMMPGKGKEQDHFVALDTQPKYRLDNGDLMIHLQAPDLGSLNSGSLVYFRKIPVGKVYDYAINPNKQGVVIDVLIERRFTDLVKKGSRFWNVSGVDANVSISGAKVKLESLAALVNGAIAFDSPEESKPAEAEDTFGLYEDLAHSQRGVIIKLELPSGAGLTADSTPLMYQGLEVGQLTKLDLNPGGKVTGEMTVDPSVVTLLRENTRIELRNPKLSLSDANLSALLTGKTFELVPGDGEPRKEFVVVPGEKALLHEPDVLTLTLTAPESYGIDAGQPLILHGVQVGQVIDRKLTSKGVTFTVAIEPQHRELVKGDSKFVVNSRVDVKVGLDGVEFLGASASEWINGGIRILPGDKGEMKASYPLYANLEKALENSLSDLPTTTVSLSAETLPDVQAGSVVLYRKFEVGEVITVRPRANAFDIDLHIKPEYRNLLTSNSVFWAEGGAKVQLNGSGLTVQASPLSRALKGAISFDNLSGASASQRKGDKRILYASETAARAVTITDSRYLDGLSIIVEAPEAGSLGIGTPVLFRGLEVGTVTGMTLGTLSDRVMIAMRISKRYQHLVRNNSVFWLASGYSLDFGLTGGVVKTGTFNQFIRGGIAFATPPGTPLAPKAQEGKHFLLQESEPKEWREWGTALPK
B3: LetB four-ring truncation mutant (rings 2-4 deleted), TM helix removed (domain or fragment)
chain: QDRGNTVTIDFMSADGIVPGRTPVRYQGVEVGTVQDISLSDDLRKIEVKVSIKSDMKDALREETQFWLVTPKASLAGVSGLDALVGGNYIGMMPGKGKEQDHFVALDTQPKYRLDNGNLEKALENSLSDLPTTTVSLSAETLPDVQAGSVVLYRKFEVGEVITVRPRANAFDIDLHIKPEYRNLLTSNSVFWAEGGAKVQLNGSGLTVQASPLSRALKGAISFDNLSGASASQRKGDKRILYASETAARAVGGQITLHAFDAGKLAVGMPIRYLGIDIGQIQTLDLITARNEVQAKAVLYPEYVQTFARGGTRFSVVTPQISAAGVEHLDTILQPYINVEPGRGNPRRDFELQEATITDSRYLDGLSIIVEAPEAGSLGIGTPVLFRGLEVGTVTGMTLGTLSDRVMIAMRISKRYQHLVRNNSVFWLASGYSLDFGLTGGVVKTGTFNQFIRGGIAFATPPGTPLAPKAQEGKHFLLQESEPKEWREWGTALPK
B4: LetB five-ring truncation mutant (rings 5 and 6 deleted), TM helix removed (domain or fragment)
chain: QDRGNTVTIDFMSADGIVPGRTPVRYQGVEVGTVQDISLSDDLRKIEVKVSIKSDMKDALREETQFWLVTPKASLAGVSGLDALVGGNYIGMMPGKGKEQDHFVALDTQPKYRLDNGDLMIHLQAPDLGSLNSGSLVYFRKIPVGKVYDYAINPNKQGVVIDVLIERRFTDLVKKGSRFWNVSGVDANVSISGAKVKLESLAALVNGAIAFDSPEESKPAEAEDTFGLYEDLAHSQRGVIIKLELPSGAGLTADSTPLMYQGLEVGQLTKLDLNPGGKVTGEMTVDPSVVTLLRENTRIELRNPKLSLSDANLSALLTGKTFELVPGDGEPRKEFVVVPGEKALLHEPDVLTLTLTAPESYGIDAGQPLILHGVQVGQVIDRKLTSKGVTFTVAIEPQHRELVKGDSKFVVNSRVDVKVGLDGVEFLGASASEWINGGIRILPGDKGEMKASYPLYANLEKALENSLSDLPTTITDSRYLDGLSIIVEAPEAGSLGIGTPVLFRGLEVGTVTGMTLGTLSDRVMIAMRISKRYQHLVRNNSVFWLASGYSLDFGLTGGVVKTGTFNQFIRGGIAFATPPGTPLAPKAQEGKHFLLQESEPKEWREWGTALPK

How the values were obtained:
cryo-EM structure = biological target: the molecule itself; assay: cryo-EM structure
negative stain EM = biological target: the molecule itself; assay: negative stain EM

Protein | stoichiometry N (cryo-EM structure) | stoichiometry N (negative stain EM)
B1 | 6 | –
B2 | – | 6
B3 | – | 6
B4 | – | 6
